Laboratory results taken from US20150239980A1 (NEOTOPE BOSCIENCES, published 2015).

T1: Murine MCAM domain 1 (Ig1) with human IgG Fc tag (mouse, UniProt Q8R2Y2 24-131, limits assumed)
T1 construct: domain: domain 1 (Ig1); also called MCAM Fc domain 1; Fc domain 1 alone; not shown: human IgG Fc tag
T1 sequence (looked up): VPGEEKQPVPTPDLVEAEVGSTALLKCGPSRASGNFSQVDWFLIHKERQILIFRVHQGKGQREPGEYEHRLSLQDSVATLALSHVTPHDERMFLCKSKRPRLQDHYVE

T2: human MCAM (melanoma cell adhesion molecule) expressed on transfected CHO cells (human, UniProt P43121 24-646)
T2 construct: also called hMCAM; CD146
T2 chain: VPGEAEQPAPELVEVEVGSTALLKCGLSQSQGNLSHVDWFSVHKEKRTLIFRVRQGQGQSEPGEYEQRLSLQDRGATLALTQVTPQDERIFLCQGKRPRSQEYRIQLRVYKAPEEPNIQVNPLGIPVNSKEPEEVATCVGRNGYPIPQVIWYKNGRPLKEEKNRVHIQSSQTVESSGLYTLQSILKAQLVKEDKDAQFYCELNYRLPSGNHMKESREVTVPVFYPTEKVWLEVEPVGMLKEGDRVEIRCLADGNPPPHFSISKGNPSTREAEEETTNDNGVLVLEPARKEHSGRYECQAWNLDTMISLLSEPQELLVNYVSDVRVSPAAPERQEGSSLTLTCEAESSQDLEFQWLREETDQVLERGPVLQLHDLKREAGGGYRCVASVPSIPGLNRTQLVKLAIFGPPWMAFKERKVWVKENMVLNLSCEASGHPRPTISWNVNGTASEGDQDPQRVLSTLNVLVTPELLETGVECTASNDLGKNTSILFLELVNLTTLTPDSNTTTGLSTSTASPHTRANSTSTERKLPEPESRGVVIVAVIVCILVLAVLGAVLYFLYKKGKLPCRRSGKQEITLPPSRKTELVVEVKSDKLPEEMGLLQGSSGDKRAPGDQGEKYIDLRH

T3: murine MCAM-Fc fusion protein (mouse, UniProt Q8R2Y2 24-563)
T3 construct: extracellular domain; produced in CHO cells; also called mouse MCAM-Fc; mouse MCAMhFc; not shown: fused to human IgG
T3 sequence (looked up): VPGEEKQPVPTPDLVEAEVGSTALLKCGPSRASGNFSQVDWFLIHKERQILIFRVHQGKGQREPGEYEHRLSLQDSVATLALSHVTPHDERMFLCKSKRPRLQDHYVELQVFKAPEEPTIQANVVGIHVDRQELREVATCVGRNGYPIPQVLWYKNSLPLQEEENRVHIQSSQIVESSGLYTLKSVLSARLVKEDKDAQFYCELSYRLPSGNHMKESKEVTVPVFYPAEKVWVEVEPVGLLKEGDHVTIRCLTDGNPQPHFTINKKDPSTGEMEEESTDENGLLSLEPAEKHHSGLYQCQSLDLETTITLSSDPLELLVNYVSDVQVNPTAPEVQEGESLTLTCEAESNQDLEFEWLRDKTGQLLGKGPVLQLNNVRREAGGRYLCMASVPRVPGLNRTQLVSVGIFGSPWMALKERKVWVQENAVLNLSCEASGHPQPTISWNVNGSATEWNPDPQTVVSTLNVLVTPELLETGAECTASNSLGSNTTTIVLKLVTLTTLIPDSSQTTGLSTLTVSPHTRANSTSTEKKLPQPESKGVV

T4: Ig2 domain (mouse, UniProt Q8R2Y2)
T4 construct: isolated domain 2; also called Murine MCAM domain 2 (Ig2) with human IgG Fc tag
T4 sequence (Fc fusion chain, looked up): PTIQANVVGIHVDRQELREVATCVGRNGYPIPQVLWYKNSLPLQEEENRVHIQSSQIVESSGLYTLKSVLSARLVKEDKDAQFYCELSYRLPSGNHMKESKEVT

T5: Recombinant human laminin-α4 (R&D systems) (human, UniProt Q16363-2 826-1816)
T5 construct: also called laminin α-4 chain
T5 sequence (looked up): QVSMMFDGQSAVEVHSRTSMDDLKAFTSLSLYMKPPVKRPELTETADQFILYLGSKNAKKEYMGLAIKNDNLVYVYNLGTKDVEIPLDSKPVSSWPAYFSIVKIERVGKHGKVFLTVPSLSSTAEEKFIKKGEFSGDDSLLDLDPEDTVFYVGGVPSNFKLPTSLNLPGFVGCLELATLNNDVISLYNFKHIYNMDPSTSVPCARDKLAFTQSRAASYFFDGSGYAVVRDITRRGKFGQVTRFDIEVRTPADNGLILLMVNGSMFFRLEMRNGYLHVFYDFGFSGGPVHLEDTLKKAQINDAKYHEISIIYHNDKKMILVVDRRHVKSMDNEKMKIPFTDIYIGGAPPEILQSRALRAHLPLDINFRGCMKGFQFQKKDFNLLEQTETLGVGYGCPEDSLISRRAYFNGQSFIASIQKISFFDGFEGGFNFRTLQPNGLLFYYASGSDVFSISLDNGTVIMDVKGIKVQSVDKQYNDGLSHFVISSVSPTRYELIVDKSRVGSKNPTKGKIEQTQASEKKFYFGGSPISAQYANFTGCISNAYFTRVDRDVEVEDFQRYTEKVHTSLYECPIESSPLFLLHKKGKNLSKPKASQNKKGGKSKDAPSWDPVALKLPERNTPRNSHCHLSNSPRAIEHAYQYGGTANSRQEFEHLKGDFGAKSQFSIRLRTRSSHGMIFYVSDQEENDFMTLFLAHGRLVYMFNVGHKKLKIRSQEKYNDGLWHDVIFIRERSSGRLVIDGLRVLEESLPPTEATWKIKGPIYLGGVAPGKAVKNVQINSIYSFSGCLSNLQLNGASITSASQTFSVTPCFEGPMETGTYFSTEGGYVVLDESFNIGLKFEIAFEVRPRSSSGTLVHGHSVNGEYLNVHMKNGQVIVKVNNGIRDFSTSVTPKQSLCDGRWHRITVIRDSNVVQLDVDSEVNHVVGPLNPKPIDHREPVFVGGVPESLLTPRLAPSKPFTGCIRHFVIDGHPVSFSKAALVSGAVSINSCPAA

B1: anti-MCAM monoclonal antibody clone 15 (antibody, V domains shown)
VH: EVRLVESGGGLVQPGKSMKLSCVASGFKFSNYYMSWVRQAPAKGLEWVASISDGGGDTFCRDLVKGRFTISRDNAKSTLYLQMDSLRPEDTATYYCARRGAAMGGVMDAWGQGTSVTVSS
VL: DIVMTQSPSSLAVSAGETVSIHCKSSQSLLYSGTQKNYLAWFQQKPGQSPKLLIFWASTRQSGVPDRFIGRGSGTDFTLTISGVQAEDLAIYYCQQYYDTLTDTFGAGTKLELKR
notes: rat monoclonal raised against murine MCAM-Fc; also called Anti-MCAM Clone 15; anti-mouse MCAM clone 15
B2: human MCAM domain 1 (amino acids 19-129), Fc-tagged (Fc fusion, not shown: a dimerising Fc or GST)
chain: PRVAGVPGEAEQPAPELVEVEVGSTALLKCGLSQSQGNLSHVDWFSVHKEKRTLIFRVRQGQGQSEPGEYEQRLSLQDRGATLALTQVTPQDERIFLCQGKRPRSQEYRIQ
notes: also called MCAM Fc domain 1
B3: mouse MCAM expressed on transfected CHO cells (receptor, UniProt Q8R2Y2 24-648, looked up)
chain: VPGEEKQPVPTPDLVEAEVGSTALLKCGPSRASGNFSQVDWFLIHKERQILIFRVHQGKGQREPGEYEHRLSLQDSVATLALSHVTPHDERMFLCKSKRPRLQDHYVELQVFKAPEEPTIQANVVGIHVDRQELREVATCVGRNGYPIPQVLWYKNSLPLQEEENRVHIQSSQIVESSGLYTLKSVLSARLVKEDKDAQFYCELSYRLPSGNHMKESKEVTVPVFYPAEKVWVEVEPVGLLKEGDHVTIRCLTDGNPQPHFTINKKDPSTGEMEEESTDENGLLSLEPAEKHHSGLYQCQSLDLETTITLSSDPLELLVNYVSDVQVNPTAPEVQEGESLTLTCEAESNQDLEFEWLRDKTGQLLGKGPVLQLNNVRREAGGRYLCMASVPRVPGLNRTQLVSVGIFGSPWMALKERKVWVQENAVLNLSCEASGHPQPTISWNVNGSATEWNPDPQTVVSTLNVLVTPELLETGAECTASNSLGSNTTTIVLKLVTLTTLIPDSSQTTGLSTLTVSPHTRANSTSTEKKLPQPESKGVVIVAVIVCTLVLAVLGAALYFFYKKGKLPCGRSGKQEITLPPTRKSEFVVEVKSDKLPEEMALLQGSNGDKRAPGDQGEKYIDLRH
notes: whole, on cells; also called murine MCAM

Assays:
[1] = target: T1, Murine MCAM domain 1 (Ig1) with human …; assay: ForteBio Octet Red, domain-hFc on anti-human IgG Fc sensor
Text: (§1) The following protocol was used: ForteBio Domain Mapping Protocol. ForteBio anti-human IgG Fc biosensors were used to immobilize various mouse MCAMhFc domains including full length mouse MCAMhFc protein on to biosensor surface. These sensors were dipped into either clone 15 or 17 MCAM specific antibody for detection of binding to these domains or full length protein. After loading these samples into a black 96 well plate, the Octet Red was programmed as follows: 60 seconds for baseline #1; 180 seconds for loading various domains; 60 seconds for baseline #2; 180 seconds for association of antibody to domain; and 240 seconds for dissociation of antibody from domain.
(§2) 1. Mouse MCAMhFc final concentration @ 5 ug/ml [0466] 2. Antibody clone 15 or 17 @ 5 ug/ml [0467] 3. ForteBio anti-human IgG Fc Capture (AHC) biosensors for kinetics experiments, cat#18-5060 [0468] 4. […] 5. ForteBio Octet Red machine [0470] 6. Fresh tissue culture medium, DMEM with 20% FCS, was used as buffer for dilution

[2] = target: T2, human MCAM (melanoma cell adhesion …); assay: flow cytometry, human MCAM transfected cells mixed with CFSE-labelled untransfected cells
[3] = target: B3; assay: flow cytometry, mouse MCAM transfected cells mixed with CFSE-labelled untransfected cells
Description: For the generation of antibodies capable of binding to murine MCAM, MCAM-Fc was generated by fusing the extracellular domain of murine MCAM to human IgG and produced in CHO cells using standard techniques. Lou/M rats were immunized with 100 μg of MCAM-Fc protein in CFA (1:1 volume). Rats were boosted two times at two week intervals with MCAM-Fc protein in incomplete Freund's adjuvant (IFA) (1:1 volume). Hybridomas were generated from immunized rats using standard protocols and clones were selected by Clonepix. CHO cells were transfected with the full length murine MCAM gene and selected for stable expression using neomycin and standard techniques. Parental CHO cells (MCAM negative) were fluorescently labeled with carboxyfluorescein succinimidyl ester (CFSE) using standard techniques and mixed at a 1:1 ratio with unlabeled MCAM transfected CHO cells. Hybridoma supernatants were incubated with this mixture of cells for 30 minutes and binding of potential MCAM specific antibodies was detected with a fluorescently labeled anti-rat secondary antibody (Jackson Immuno) by flow cytometry.

[4] = target: T3, murine MCAM-Fc fusion protein; assay: ForteBio Octet Red, anti-human IgG Fc (AHC) biosensors loaded with mouse MCAM-hFc proteins (5 ug/ml), dipped into antibody (5 ug/ml) or SP2 media
Text: as §1, §2
(§3) For FIGS. 10A-B, clones 15 and 17 were tested against the following protein samples (all have human IgG Fc tag): Murine MCAM; Human Fc full length protein; Murine MCAM domain 1 (Ig1); Murine MCAM domain 2 (Ig2); and Murine MCAM domain 1 and 2 (Ig1-2A).

Ig2 domain = target: T4, Ig2 domain; assay: as above
Text: as §1, §2, §3

[5] = target: T6, recombinant human laminin 511 (Biolamina) (human, UniProt O15230 36-3695; P07942 22-1786; P11047 34-1609); assay: SPR, Biacore T200
T6 construct: negative control; also called laminin 10 (α5β1γ1)

[6] = target: T5, Recombinant human laminin-α4 (R&D …); assay: SPR, Biacore T200
[7] = target: T6, recombinant human laminin 511 …; assay: flow cytometry, mouse MCAM CHO cells, pan-laminin antibody

Binder: B1
binding result [1]: no binding (tested: 5 ug/ml)
binding result [2]: no binding
binding result [3]: binds
binding result [4]: binds
binding result (Ig2 domain): no binding (tested: 5 ug/ml)

Binder: B2
binding result [5]: no binding (tested: 5-175 nM)
binding result [6]: no binding (tested: 5-175 nM)

Binder: B3
binding result [7]: no binding (tested: 10 µg/ml)
